We go through nine molecules from article PMC10383195, “Interactions of the Kv1.1 Channel with Peptide Pore Blockers: A Fluorescent Analysis on Mammalian Cells” (Membranes, 2023).

The target in test [1] is T1, mKate2-tagged human Kv1.1 (S369T) channel (K-Kv1.1) (Homo sapiens, UniProt Q09470, S369T).
T1 construct: these fragments were combined and amplified using terminal primers to obtain the whole mutated gene; expressed in transfected cells; host or cells: mouse neuroblastoma Neuro2a cells, transient transfection with pmKate2-KCNA1m1
The test can be described thus: Competitive binding of peptide pore blocker and A-HgTx to K-Kv1.1 on the plasma membrane of Neuro2a cells (confocal microscopy). The settings on record: for Kd: complete medium (closed channels), Neuro2a cells, A-HgTx 2 nM, 60 min, Cheng-Prusoff from DC50, mean ± SEM, two independent experiments, SEM, read-out: Kap (apparent dissociation constant of complex with K-Kv1.1). Here is the method: To analyze the binding of A-HgTx, A-HgTx (0.25–4 nM) was added to cells in a complete medium for 60 min. To analyze competitive binding, A-HgTx (2 nM), together with the selected peptide (0.05–160 nM), was added to cells in a complete medium for 60 min.
To compare ligand binding with closed and open channels, ligands were added to cells (60 min, 37 °C) in a buffer (20 mM HEPES pH 7.4, 0.9 mM CaCl2, 0.5 mM MgCl2, 0.1% BSA) supplemented with 4 mM KCl and 150 mM NaCl (Na^+ buffer) or with 150 mM KCl (K^+ buffer).
The fluorescence of the K-Kv1.1 and K-Kv1.1wt channels was excited at 561 nm and detected in the 650–700 nm region. A-HgTx fluorescence was excited at 488 nm and detected in the 495–535 nm region. Sequential scanning was used to measure the cellular distributions of A-HgTx and mKate2 fluorescence in order to avoid interference of mKate2 fluorescence with cellular autofluorescence excited at 488 nm.
Quantitative analysis of the interaction of A-HgTx with K-Kv1.1 was carried out in accordance with the procedure developed previously for A-HgTx and the fluorescently labeled Kv1.3 channel. Briefly, the regions of interest with K-Kv1.1 on the plasma membrane were selected in the confocal images and used to create binary (0;1) masks that described the membranous distribution of K-Kv1.1. The confocal images of K-Kv1.1 and A-HgTx were multiplied by the corresponding mask, and the average fluorescence intensities of A-HgTx (Ili) and K-Kv1.1 (Ici) corrected for the background signal were calculated for each i-cell. Ratio Ri = Ili/Ici was calculated and averaged over 15–20 cells to obtain the Rav value and the standard deviation.
To analyze the competitive binding of the studied peptide pore blocker and A-HgTx to K-Kv1.1 on the cellular membrane, Rav data were plotted depending on the blocker concentration (C) at the constant A-HgTx concentration (L) and fitted with the following equation:Rav(C) = Rav0/(1 + C/DC50)(3) where DC50 is the blocker concentration displacing 50% of A-HgTx from the complex with K-Kv1.1, and Rav0 is Rav at C = 0.
The apparent dissociation constant (Kap) of the complex between the studied blocker and the K-Kv1.1 channel was calculated using the Cheng–Prusoff equation:Kap = DC50/(1 + L/Kd).(4)
Two independent experiments were performed, and the Kav data were averaged and presented as mean ± SEM. Fifteen to twenty-five treated cell images were the average value for each point on the curves of A-HgTx binding to the K-Kv1.1 channel.

Test [2] deals with T2, K-Kv1.1 channel (hKv1.1S369T with mKate2) (Homo sapiens, UniProt Q09470, S369T).
T2 construct: these fragments were combined and amplified using terminal primers to obtain the whole mutated gene; expressed in transfected cells; host or cells: mouse neuroblastoma Neuro2a cells, transient transfection with pmKate2-KCNA1m1
The test is described as follows: Whole-cell patch-clamp of currents through K-Kv1.1 in Neuro2a cells. In kind it is cell-based. The settings on record: HgTx1 2 nM, applied voltage from −10 to 70 mV, n = 10. Here is the method: Membrane ion currents through the K-Kv1.1 channel were recorded at room temperature by the patch-clamp technique using the standard whole-cell configuration as described earlier.
Briefly, Neuro2a cells attached to coverslips (10 mm in diameter) pre-coated with poly-D-lysine were immersed in a buffer (140 mM NaCl, 2.8 mM KCl, 2 mM MgCl2, 2 mM CaCl2, 10 mM glucose, 10 mM HEPES, pH 7.4) and perfused continuously. Micropipettes with a tip resistance of 6–8 MΩ were filled with a pipette solution containing 140 mM KCl, 6 mM CaCl2, 2 mM MgCl2, 2 mM MgATP, 0.4 mM NaGTP, 10 mM HEPES, 20 mM BAPTA/KOH (pH 7.3). The patches were routinely held at a holding potential of −40 mV. The potential was changed from −70 to +70 mV (20 mV step) using 200 ms pulses, which were applied incrementally with an interval of 20 s. Finally, the potential returned to the holding potential.
Cells were measured 24–48 h after transfection. The cells were selected by K-Kv1.1 fluorescence. The cells were analyzed if their input resistance was more than 350 MΩ. The currents were recorded using an EPC-10 amplifier (HEKA Elektronik, Stuttgart, Germany).
[…] The toxins were dissolved in a complete medium.
The measured concentration dependence of current inhibition through the K-Kv1.1 channel by A-HgTx was analyzed with the following equation:Irel(L) = 100/(1 + (IC50/L)^h) (1) where Irel is a decrease in current (%), L is the concentration of A-HgTx, IC50 is the concentration of A-HgTx that induces a 50% decrease in current, and h is the Hill coefficient.
(The patch-clamp technique gives a direct electrical read-out from membranes.)

The next test addresses Kv1.3 (Homo sapiens) (UniProt P22001). The following applies: cited from earlier work.
Test [3] relates to non-transfected Neuro2a cells. The settings on record: cited from earlier work.
Test [4] deals with T3, Kv1.1 (K-Kv1.1, mKate2-tagged) (Homo sapiens, UniProt Q09470).
T3 chain: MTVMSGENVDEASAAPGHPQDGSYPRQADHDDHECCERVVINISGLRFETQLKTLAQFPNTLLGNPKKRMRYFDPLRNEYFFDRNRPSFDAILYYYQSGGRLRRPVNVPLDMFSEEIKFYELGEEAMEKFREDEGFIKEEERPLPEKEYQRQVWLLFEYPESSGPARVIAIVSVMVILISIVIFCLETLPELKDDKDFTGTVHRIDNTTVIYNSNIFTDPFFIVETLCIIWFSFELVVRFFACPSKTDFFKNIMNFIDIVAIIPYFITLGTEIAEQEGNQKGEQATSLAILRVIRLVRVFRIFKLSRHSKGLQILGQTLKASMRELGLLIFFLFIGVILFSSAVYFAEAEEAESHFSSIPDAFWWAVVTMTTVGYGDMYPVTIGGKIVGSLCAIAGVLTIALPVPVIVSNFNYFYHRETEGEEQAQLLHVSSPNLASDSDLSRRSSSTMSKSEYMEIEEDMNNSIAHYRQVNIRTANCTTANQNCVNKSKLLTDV
The test is described as follows: competitive confocal fluorescence binding with A-HgTx, complete medium.

Test [5] concerns the target T3, Kv1.1 (K-Kv1.1, mKate2-tagged). The test is described as follows: competitive confocal fluorescence binding with A-HgTx, K+ buffer (open state).
Test [6] shares this target. The test is described as follows: confocal fluorescence binding on Neuro2a cells, K+ buffer (open state).
Test [7] has the same target. The test can be described thus: confocal fluorescence binding on Neuro2a cells, Na+ buffer (closed state).
The target is the same in test [8]. The test is described as follows: confocal fluorescence binding on Neuro2a cells, complete medium.

Bridge positions count the residues as written; N and C are the ends. Peptide text beside a SMILES is read from it.

Chain of Kv1.3 (Homo sapiens) (P22001 whole entry): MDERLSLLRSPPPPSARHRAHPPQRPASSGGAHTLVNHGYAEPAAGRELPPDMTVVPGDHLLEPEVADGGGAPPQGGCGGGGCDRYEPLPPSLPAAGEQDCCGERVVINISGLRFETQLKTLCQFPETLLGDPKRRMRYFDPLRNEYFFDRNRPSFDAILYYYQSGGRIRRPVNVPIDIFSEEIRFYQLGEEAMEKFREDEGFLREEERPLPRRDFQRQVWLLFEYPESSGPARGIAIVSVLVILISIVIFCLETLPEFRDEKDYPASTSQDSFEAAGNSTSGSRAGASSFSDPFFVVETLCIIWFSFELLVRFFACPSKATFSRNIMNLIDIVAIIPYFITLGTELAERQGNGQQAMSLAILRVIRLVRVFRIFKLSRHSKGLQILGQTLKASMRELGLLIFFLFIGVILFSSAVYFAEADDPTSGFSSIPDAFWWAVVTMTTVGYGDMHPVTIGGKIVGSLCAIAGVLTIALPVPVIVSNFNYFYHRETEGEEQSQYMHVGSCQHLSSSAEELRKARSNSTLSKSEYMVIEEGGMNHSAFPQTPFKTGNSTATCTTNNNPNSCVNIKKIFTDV

With `CC[C@H](C)[C@@H]1NC(=O)[C@@H]2CSSC[C@@H]3NC(=O)[C@H](CCCCN)NC(=O)[C@H](CCCNC(=N)N)NC(=O)[C@H](CC(N)=O)NC(=O)[C@H](CCSC)NC(=O)[C@H](CSSC[C@H](NC(=O)[C@H](CO)NC(=O)[C@@H](NC(=O)[C@H](CC(N)=O)NC(=O)[C@@H](NC(=O)[C@@H]4CCCN4C(=O)[C@@H](NC(=O)CN)C(C)C)[C@@H](C)CC)C(C)C)C(=O)N[C@@H]([C@@H](C)O)C(=O)NCC(=O)N[C@@H](CO)C(=O)N4CCC[C@H]4C(=O)N[C@@H](CCC(N)=O)C(=O)N2)NC(=O)[C@H](CCCCN)NC(=O)CNC(=O)[C@H](Cc2ccccc2)NC(=O)[C@H](CCCNC(=N)N)NC(=O)[C@H](CCSC)NC(=O)CNC(=O)[C@H](C)NC(=O)[C@H](CC(=O)O)NC(=O)[C@H](CCCCN)NC(=O)[C@H](CSSC[C@@H](C(=O)N[C@H](C(=O)N2CCC[C@H]2C(=O)N[C@@H](CCCCN)C(=O)O)[C@@H](C)O)NC(=O)[C@H](Cc2c[nH]cn2)NC3=O)NC(=O)[C@@H]2CCCN2C(=O)[C@H](CCCCN)NC1=O` [AgTx2, agitoxin 2], the Kd in [1] stood at 1500 ± 700 pM.
As to `CC[C@H](C)[C@@H]1NC(=O)CNC(=O)[C@H](Cc2ccccc2)NC(=O)[C@H](CCC(N)=O)NC(=O)[C@H](C)NC(=O)[C@H](CCCCN)NC(=O)[C@@H]2CSSC[C@@H](C(=O)N[C@@H](Cc3ccc(O)cc3)C(=O)N3CCC[C@H]3C(=O)N[C@@H](Cc3c[nH]cn3)C(=O)O)NC(=O)[C@H](CCCCN)NC(=O)[C@@H]3CSSC[C@H](NC(=O)[C@H](CCC(N)=O)NC(=O)[C@H](CCCCN)NC(=O)[C@@H]4CCCN4C(=O)[C@H](CO)NC(=O)[C@H]([C@@H](C)O)NC(=O)[C@@H](NC(=O)[C@H](CCCCN)NC(=O)[C@@H](NC(=O)[C@H](CC(=O)O)NC(=O)[C@@H](NC(=O)[C@@H](NC(=O)[C@@H](N)[C@@H](C)O)C(C)C)[C@@H](C)CC)C(C)C)CSSC[C@H](NC(=O)[C@H](CCCCN)NC(=O)[C@H](C)NC(=O)CNC(=O)[C@H](C)NC(=O)[C@H](CCCNC(=N)N)NC1=O)C(=O)N[C@@H](CCSC)C(=O)N[C@@H](CC(N)=O)C(=O)NCC(=O)N[C@@H](CCCCN)C(=O)N3)C(=O)N[C@@H](CC(C)C)C(=O)N1CCC[C@H]1C(=O)N1CCC[C@H]1C(=O)N2` [HgTx1, hongotoxin 1] (H-TVIDVKCTSPKQCLPPCKAQFGIRAGAKCMNGKCKCYPH-OH; disulfide 7-29, 13-34, 17-36), the “decrease in the peak current amplitude” value in test [2] worked out at 73 ± 8%.
Take `CC[C@H](C)[C@H](NC(=O)[C@H](CCC(=O)O)NC(=O)[C@@H](NC(=O)CN)C(C)C)C(=O)N[C@@H](CC(N)=O)C(=O)N[C@H](C(=O)N[C@@H](CCCCN)C(=O)N[C@H]1CSSC[C@@H]2NC(=O)[C@H](CCCCN)NC(=O)CNC(=O)[C@H](Cc3ccccc3)NC(=O)[C@H](CCCNC(=N)N)NC(=O)[C@H](CCSC)NC(=O)CNC(=O)[C@H](C)NC(=O)[C@H](CC(=O)O)NC(=O)[C@H](CCCCN)NC(=O)[C@@H]3CSSC[C@@H](C(=O)N[C@H](C(=O)N4CCC[C@H]4C(=O)N[C@@H](CCCCN)C(=O)O)[C@@H](C)O)NC(=O)[C@H](Cc4c[nH]cn4)NC(=O)[C@H](CSSC[C@H](NC(=O)[C@H](CCC(N)=O)NC(=O)[C@@H]4CCCN4C(=O)[C@H](CO)NC(=O)CNC(=O)[C@H](CO)NC1=O)C(=O)N[C@@H](CC(C)C)C(=O)N[C@@H](CCCCN)C(=O)N1CCC[C@H]1C(=O)N3)NC(=O)[C@H](CCCCN)NC(=O)[C@H](CCCNC(=N)N)NC(=O)[C@H](CC(N)=O)NC(=O)[C@H](CCSC)NC2=O)C(C)C` [KTx1, kaliotoxin 1]: the Kd in test [1] came to 120 ± 80 pM.
“A-HgTx (Atto-labelled hongotoxin 1) (from UniProt P59847)”: the Kd with Kv1.3 (Homo sapiens) is 300 pM.
Consider charybdotoxin [ChTx], for which the “effect of channel state (closed or open) on affinity of K-Kv1.1 for the peptide” value in [1] (A-HgTx (2 nM) displacement compared in complete medium, Na+ and K+ buffers) is “does not affect the affinity”. Also, the “effect on binding of A-HgTx (2 nM) to K-Kv1.1” value in test [1] (ChTx 100 nM) is “does not affect the binding of A-HgTx to K-Kv1.1”. The “sensitivity of background currents to the blocker” value in test [3] was “insensitive”.
As for TVINVKCTSPKQCLKPCKDLYGPHAGAKCMNGKCKCYNN [Ce1], the results for the Kd in [4] and in test [5] were 11000 pM and 18000 pM, respectively.
Taken in the same sequence, the figures for TVIDVKCTSPKQCLPPCKAQFGIRAGAKCMNGKCKCYPH [hongotoxin 1 (HgTx1)] were 30 pM and 50 pM.
As for TIINVKCTSPKQCLPPCKAQFGQSAGAKCMNGKCKCYPH [margatoxin (MgTx)], the Kd in test [4] was 300 pM; in test [5], 500 pM.
With TVIDVKCTSPKQCLPPCKAQFGIRAGAKCMNGKCKCYPH [Atto 488-hongotoxin 1 (A-HgTx)], the Kd in [6] is 800 pM; in [7], 900 pM; in test [8], 700 pM.
